Kd and fold stronger binding affinity against the natural SynP130-140 data for 3 molecules are collected here from patent US20230242601A1, “PEPTIDE USED TO PREVENT OR TREAT SYNUCLEINOPATHY” (TOHOKU UNIVERSITY, priority 2020, published 2023).

A word on the Kd: it is the concentration at which binding is half-saturated. Read a high Kd as lower affinity.

The assay concerns the target FABP3 fused with a His-tag at the N-terminus. Kind of assay: QCM, peptide added to immobilised FABP3.

Chain of FABP3 fused with a His-tag at the N-terminus (P05413 2-133): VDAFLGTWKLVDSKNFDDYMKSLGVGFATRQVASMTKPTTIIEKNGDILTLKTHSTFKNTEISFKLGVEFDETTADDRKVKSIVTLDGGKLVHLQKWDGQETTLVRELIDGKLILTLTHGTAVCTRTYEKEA

EEGFQDYEPEA [SynP130-140 Y133F] returned a Kd of 0.1 nM and a fold stronger binding affinity against the natural SynP130-140 of 2 fold. Consider EEGFQDFEPEA [SynP130-140 Y133F/Y136F], for which the fold stronger binding affinity against the natural SynP130-140 worked out at 2 fold. On to EEGYQDYEPEA [SynP130-140 peptide], for which the Kd turned out to be 0.2 nM.
